Experiment [1] addresses Glutamine synthetase from Helicobacter pylori (Helicobacter pylori) (UniProt P94845). In words: crystal structure; apo Hpy GS; crystals in 10% (v/v) PEG 6,000, 100 mM HEPES pH 7.0, 50 mM choline; 2.8 Å; hexamer in the asymmetric unit, dodecamer generated by two-fold symmetry.
For experiment [2] the target is unchanged. In words: crystal structure; Hpy GS mixed with 5 mM ATP, 5 mM PPT, 5 mM magnesium chloride; crystals in 2.0 M sodium formate, 100 mM sodium citrate pH 5.0; 2.9 Å; twelve subunits in the asymmetric unit.

The stoichiometry N is a count of units in the complex or per binding partner. With “Glutamine synthetase from Helicobacter pylori (from UniProt P94845 1-481) (enzyme)”, the stoichiometry N in experiment [1] and in experiment [2] was 12 each time.
